# Laboratory results published in article PMC4285798.
# What was measured:
# Test in all cases: FRET or BRET; CFP (donor) and YFP (acceptor) fusions co-expressed from pETDuet-1 in E. coli; late exponential cells washed once with 0.9% NaCl, 150 μl in a 96 well plate, Tecan Infinite M200 Pro; excitation 435 nm, emission 466-610 nm; RCY = ratio of the emission maxima of eCFP (480 nm) and eYFP (525 nm); RCY 1.1–1.3 read as enrichment/interaction, 0.9–1.1 as approximation without interaction, <0.9 as no FRET
# [1] = molecular target: DivIVA-YFP (C. glutamicum)
# [2] = molecular target: DivIVAΔM-YFP (C. glutamicum)
# [3] = molecular target: DivIVAI18D-YFP (C. glutamicum)
# [4] = molecular target: DivIVAI18F-YFP (C. glutamicum)
# [5] = molecular target: DivIVAK20R-YFP (C. glutamicum)
Substance,"RCY (CFP/YFP emission ratio, FRET) [1]","RCY (CFP/YFP emission ratio, FRET) [2]","RCY (CFP/YFP emission ratio, FRET) [3]","RCY (CFP/YFP emission ratio, FRET) [4]","RCY (CFP/YFP emission ratio, FRET) [5]"
RodAE438G-CFP (natural protein),1.1,,,,
RodA-CFP (natural protein),1.15,1.19,1.14,1.27,1.11
ParB-CFP (natural protein),1.16,,,,
